These results are taken from patent publication US20100076060.

Data set [1] deals with T1, 4-1BB (CD137) extracellular portion (Mus musculus) (UniProt P20334).
T1 sequence: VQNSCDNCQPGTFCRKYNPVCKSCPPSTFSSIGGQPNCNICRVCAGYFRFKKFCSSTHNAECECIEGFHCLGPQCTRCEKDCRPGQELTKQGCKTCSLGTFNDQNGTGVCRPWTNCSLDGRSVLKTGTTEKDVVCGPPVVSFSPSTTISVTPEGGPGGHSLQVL
Description: filter. The conditions noted are these: 2'-F pyrimidines.

Data set [2] deals with 4-1BB (CD137) extracellular portion (Homo sapiens) (UniProt Q07011). The data set can be described thus: filter. The following applies: 2'-F pyrimidines; alternating mouse/human selection pool.
Chain of 4-1BB (CD137) extracellular portion (Homo sapiens) (Q07011 24-186): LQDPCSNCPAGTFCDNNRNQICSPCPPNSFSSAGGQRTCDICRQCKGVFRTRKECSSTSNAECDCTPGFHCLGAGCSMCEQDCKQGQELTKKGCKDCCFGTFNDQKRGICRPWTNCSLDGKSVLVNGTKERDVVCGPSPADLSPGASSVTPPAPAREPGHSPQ

A word on the Kd: it is the free concentration of one partner at which half of the binding sites on the other are occupied at equilibrium, for simple one-to-one binding. In data set [1] (round 12 pool), “GGGAGAGAGGAAGAGGGAUGGGNNNNNNNNNNNNNNNNNNNNNNNNNNNNNNNNNNNNNNNNCAUAACCCAGAGGUCGAUAGUACUGGAUCCCCCC [mouse 4-1BB selection round 12 pool]” registered a Kd of 50 nM. For the sequence “GGGAGAGAGGAAGAGGGAUGGGNNNNNNNNNNNNNNNNNNNNNNNNNNNNNNNNNNNNNNNNCAUAACCCAGAGGUCGAUAGUACUGGAUCCCCCC [mouse/human 4-1BB alternating selection final pool]”, the Kd in data set [2] was 23 nM; in data set [1] (alternating mouse/human selection pool), 200 nM.
